From patent publication US20130005646A1 (Novo Nordisk, published 2013)
Starred links: 1 amine or outer side, 2 acyl side, 3 side chain; linkers in the order of their positions; H or OH if unused. Positions of bridges follow the written chain, without caps; N, C: chain ends. Groups on a side chain read outwards from the residue. No end group written: not given here. *: point of attachment. C20 diacid = O=C(O)CCCCCCCCCCCCCCCCCCC(=O)*; γGlu = O=C(O)[C@H](CCC(=O)[*:2])N[*:1]; AEEA = NCCOCCOCC(=O)O

Assays:
[1] = target: T1, human calcitonin (a) receptor (human, UniProt P30988 25-474); test: cell-based or functional assay
T1 sequence (looked up): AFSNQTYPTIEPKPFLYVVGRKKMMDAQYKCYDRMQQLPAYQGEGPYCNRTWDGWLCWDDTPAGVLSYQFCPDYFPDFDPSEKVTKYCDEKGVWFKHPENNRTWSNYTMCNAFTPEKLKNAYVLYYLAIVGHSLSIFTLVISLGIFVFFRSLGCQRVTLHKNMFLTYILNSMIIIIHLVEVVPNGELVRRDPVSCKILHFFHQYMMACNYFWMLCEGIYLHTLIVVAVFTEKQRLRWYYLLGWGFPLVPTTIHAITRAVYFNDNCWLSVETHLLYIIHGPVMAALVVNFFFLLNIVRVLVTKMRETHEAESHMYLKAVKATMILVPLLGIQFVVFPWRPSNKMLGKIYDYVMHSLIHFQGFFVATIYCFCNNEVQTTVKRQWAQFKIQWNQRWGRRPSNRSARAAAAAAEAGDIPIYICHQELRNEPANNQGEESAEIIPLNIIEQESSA

[2] = target: T2, human amylin 3(a) receptor (human calcitonin receptor + RAMP-3) (human, UniProt P30988 25-474; O60896 24-148); test: cell-based or functional assay
T2 sequence (looked up) 1: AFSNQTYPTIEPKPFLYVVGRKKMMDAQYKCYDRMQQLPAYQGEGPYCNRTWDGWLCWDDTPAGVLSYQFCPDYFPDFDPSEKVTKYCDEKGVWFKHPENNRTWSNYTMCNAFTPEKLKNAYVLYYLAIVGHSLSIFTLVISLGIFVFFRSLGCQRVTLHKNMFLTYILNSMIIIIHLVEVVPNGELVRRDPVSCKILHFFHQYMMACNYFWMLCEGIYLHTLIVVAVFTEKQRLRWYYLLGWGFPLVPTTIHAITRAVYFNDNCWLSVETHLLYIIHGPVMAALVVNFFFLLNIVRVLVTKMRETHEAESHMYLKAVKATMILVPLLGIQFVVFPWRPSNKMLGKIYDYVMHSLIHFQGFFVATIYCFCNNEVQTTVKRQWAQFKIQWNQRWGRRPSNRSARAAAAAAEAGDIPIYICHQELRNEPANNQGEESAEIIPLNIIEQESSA
T2 sequence (looked up) 2: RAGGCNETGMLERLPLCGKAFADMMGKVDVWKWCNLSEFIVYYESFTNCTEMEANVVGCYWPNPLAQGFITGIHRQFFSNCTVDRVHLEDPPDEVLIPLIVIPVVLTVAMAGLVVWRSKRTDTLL

Binder | CTa receptor human EC50 [1] | Amylin receptor human EC50 [2]
{C20 diacid-γGlu}-KCNTATCATQRLAEFLHHSSTNFGPILPPTNVGSNTP-NH2 (disulfide 2-7; SMILES CC[C@H](C)[C@H](NC(=O)[C@@H]1CCCN1C(=O)CNC(=O)[C@H](Cc1ccccc1)NC(=O)[C@H](CC(N)=O)NC(=O)[C@@H](NC(=O)[C@H](CO)NC(=O)[C@H](CO)NC(=O)[C@H](Cc1c[nH]cn1)NC(=O)[C@H](Cc1c[nH]cn1)NC(=O)[C@H](CC(C)C)NC(=O)[C@H](Cc1ccccc1)NC(=O)[C@H](CCC(=O)O)NC(=O)[C@H](C)NC(=O)[C@H](CC(C)C)NC(=O)[C@H](CCCNC(=N)N)NC(=O)[C@H](CCC(N)=O)NC(=O)[C@@H](NC(=O)[C@H](C)NC(=O)[C@@H]1CSSC[C@H](NC(=O)[C@H](CCCCN)NC(=O)CC[C@H](NC(=O)CCCCCCCCCCCCCCCCCCC(=O)O)C(=O)O)C(=O)N[C@@H](CC(N)=O)C(=O)N[C@@H]([C@@H](C)O)C(=O)N[C@@H](C)C(=O)N[C@@H]([C@@H](C)O)C(=O)N1)[C@@H](C)O)[C@@H](C)O)C(=O)N[C@@H](CC(C)C)C(=O)N1CCC[C@H]1C(=O)N1CCC[C@H]1C(=O)N[C@H](C(=O)N[C@@H](CC(N)=O)C(=O)N[C@H](C(=O)NCC(=O)N[C@@H](CO)C(=O)N[C@@H](CC(N)=O)C(=O)N[C@H](C(=O)N1CCC[C@H]1C(N)=O)[C@@H](C)O)C(C)C)[C@@H](C)O) [N-alpha-[(S)-4-Carboxy-4-(19-carboxynonadecanoylamino)butyryl]-[Glu14,His17,Thr21,Pro37]-pramlintide] | 0.0595 nM | 0.091 nM
KCNTATCATQRLAEFLVHSSK([AEEA-AEEA-γGlu-19‑carboxyheptadecanoyl])NFGPILSRTNVGSHTY-NH2 (disulfide 2-7) | 0.229 nM | 0.54 nM
KCNTATCATQRLAEFLHHSSK([AEEA-AEEA-γGlu-19‑carboxyheptadecanoyl])NFGPILSSTNVGSHTY-NH2 (disulfide 2-7) | 0.319 nM | 1.03 nM
KCNTATCATQRLAEFLVRSSK([AEEA-AEEA-γGlu-19‑carboxyheptadecanoyl])NFGPILSRTNVGSRTY-NH2 (disulfide 2-7) | 0.732 nM | 0.344 nM
K([γGlu-C20 diacid])CNTATCATQRLAEFLHHSSQNFGAPLSSTNVGSNTP-NH2 (disulfide 2-7; N-terminus assumed; SMILES CC(C)C[C@H](NC(=O)[C@H](CCCNC(=N)N)NC(=O)[C@H](CCC(N)=O)NC(=O)[C@@H](NC(=O)[C@H](C)NC(=O)[C@@H]1CSSC[C@H](NC(=O)[C@@H](N)CCCCNC(=O)CC[C@H](NC(=O)CCCCCCCCCCCCCCCCCCC(=O)O)C(=O)O)C(=O)N[C@@H](CC(N)=O)C(=O)N[C@@H]([C@@H](C)O)C(=O)N[C@@H](C)C(=O)N[C@@H]([C@@H](C)O)C(=O)N1)[C@@H](C)O)C(=O)N[C@@H](C)C(=O)N[C@@H](CCC(=O)O)C(=O)N[C@@H](Cc1ccccc1)C(=O)N[C@@H](CC(C)C)C(=O)N[C@@H](Cc1c[nH]cn1)C(=O)N[C@@H](Cc1c[nH]cn1)C(=O)N[C@@H](CO)C(=O)N[C@@H](CO)C(=O)N[C@@H](CCC(N)=O)C(=O)N[C@@H](CC(N)=O)C(=O)N[C@@H](Cc1ccccc1)C(=O)NCC(=O)N[C@@H](C)C(=O)N1CCC[C@H]1C(=O)N[C@@H](CC(C)C)C(=O)N[C@@H](CO)C(=O)N[C@@H](CO)C(=O)N[C@H](C(=O)N[C@@H](CC(N)=O)C(=O)N[C@H](C(=O)NCC(=O)N[C@@H](CO)C(=O)N[C@@H](CC(N)=O)C(=O)N[C@H](C(=O)N1CCC[C@H]1C(N)=O)[C@@H](C)O)C(C)C)[C@@H](C)O) | 0.0675 nM | 0.209 nM
{C20 diacid-γGlu}-KCNTATCATQRLARFLRHSSNNFGPILPPTNVGSNTP-NH2 (disulfide 2-7; SMILES CC[C@H](C)[C@H](NC(=O)[C@@H]1CCCN1C(=O)CNC(=O)[C@H](Cc1ccccc1)NC(=O)[C@H](CC(N)=O)NC(=O)[C@H](CC(N)=O)NC(=O)[C@H](CO)NC(=O)[C@H](CO)NC(=O)[C@H](Cc1c[nH]cn1)NC(=O)[C@H](CCCNC(=N)N)NC(=O)[C@H](CC(C)C)NC(=O)[C@H](Cc1ccccc1)NC(=O)[C@H](CCCNC(=N)N)NC(=O)[C@H](C)NC(=O)[C@H](CC(C)C)NC(=O)[C@H](CCCNC(=N)N)NC(=O)[C@H](CCC(N)=O)NC(=O)[C@@H](NC(=O)[C@H](C)NC(=O)[C@@H]1CSSC[C@H](NC(=O)[C@H](CCCCN)NC(=O)CC[C@H](NC(=O)CCCCCCCCCCCCCCCCCCC(=O)O)C(=O)O)C(=O)N[C@@H](CC(N)=O)C(=O)N[C@@H]([C@@H](C)O)C(=O)N[C@@H](C)C(=O)N[C@@H]([C@@H](C)O)C(=O)N1)[C@@H](C)O)C(=O)N[C@@H](CC(C)C)C(=O)N1CCC[C@H]1C(=O)N1CCC[C@H]1C(=O)N[C@H](C(=O)N[C@@H](CC(N)=O)C(=O)N[C@H](C(=O)NCC(=O)N[C@@H](CO)C(=O)N[C@@H](CC(N)=O)C(=O)N[C@H](C(=O)N1CCC[C@H]1C(N)=O)[C@@H](C)O)C(C)C)[C@@H](C)O) [N-alpha-[(S)-4-Carboxy-4-(19-carboxynonadecanoylamino)butyryl]-[Arg14,Arg17,Pro37]-pramlintide] | 0.453 nM | 0.129 nM
{C20 diacid-γGlu}-GRCNTATCATQRLAEFLRHSSNNFGPILPPTNVGSNTP-NH2 (disulfide 3-8; SMILES CC[C@H](C)[C@H](NC(=O)[C@@H]1CCCN1C(=O)CNC(=O)[C@H](Cc1ccccc1)NC(=O)[C@H](CC(N)=O)NC(=O)[C@H](CC(N)=O)NC(=O)[C@H](CO)NC(=O)[C@H](CO)NC(=O)[C@H](Cc1c[nH]cn1)NC(=O)[C@H](CCCNC(=N)N)NC(=O)[C@H](CC(C)C)NC(=O)[C@H](Cc1ccccc1)NC(=O)[C@H](CCC(=O)O)NC(=O)[C@H](C)NC(=O)[C@H](CC(C)C)NC(=O)[C@H](CCCNC(=N)N)NC(=O)[C@H](CCC(N)=O)NC(=O)[C@@H](NC(=O)[C@H](C)NC(=O)[C@@H]1CSSC[C@H](NC(=O)[C@H](CCCNC(=N)N)NC(=O)CNC(=O)CC[C@H](NC(=O)CCCCCCCCCCCCCCCCCCC(=O)O)C(=O)O)C(=O)N[C@@H](CC(N)=O)C(=O)N[C@@H]([C@@H](C)O)C(=O)N[C@@H](C)C(=O)N[C@@H]([C@@H](C)O)C(=O)N1)[C@@H](C)O)C(=O)N[C@@H](CC(C)C)C(=O)N1CCC[C@H]1C(=O)N1CCC[C@H]1C(=O)N[C@H](C(=O)N[C@@H](CC(N)=O)C(=O)N[C@H](C(=O)NCC(=O)N[C@@H](CO)C(=O)N[C@@H](CC(N)=O)C(=O)N[C@H](C(=O)N1CCC[C@H]1C(N)=O)[C@@H](C)O)C(C)C)[C@@H](C)O) | 0.041 nM | 0.043 nM
